Measurements taken from the supplement of paper PMC10126150.
± gives the standard deviation of the averaged measurements.

Tested on: ATP
Experiment: switch fluorescence ratio, 500 uM ATP over buffer (Cy3 cluster intensity, sum of 5 cycles each) (fold (ratio)); higher = stronger signal-on switching upon ATP binding; sequences stand for … in TCGTCGGCAGCGTCAGATGTGTATAAGAGACAGTTTTTTTTTTTTTTTTTTTTTTTTT…TC
Conditions: aptamer strand: ATP DNA aptamer (quencher-CACCTGGGGGAGTATTGCGGAGGAAGG + anchor), 100 nM annealed; ATP concentration: 500 uM
Method in brief: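 Imaging in selection buffer was followed by imaging after 15 min with 500 uM ATP at 22 °C, for Cy3-labelled switching-strand clusters annealed to 100 nM quencher-labelled ATP aptamer on a modified Illumina MiSeq flow-cell. Five of these buffer/ATP cycles ran, separated by NaOH stripping and re-annealing. The fluorescence ratio per cluster is summed target-cycle over summed buffer-cycle Cy3 intensity, averaged per switch-domain sequence; clusters outside 100-1000 RFU were removed.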
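Note: ATP exposure 15 min at 22 °C before imaging.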

Row | Sequence | switch fluorescence ratio
1 | TCGGGTATTC | 1.06 ± 0.14
2 | TCGGGTCCAT | 1 ± 0.026
3 | TCGGGTGGGG | 1.01 ± 0.014
4 | TCGGGTTGGG | 0.975 ± 0.023
5 | TCGGGTTTTT | 1 ± 0.03
6 | TCGGTAAATT | 1.05 ± 0.014
7 | TCGGTACATA | 1.037 ± 0.0066
8 | TCGGTAGTG | 0.985 ± 0.028
9 | TCGGTATGAC | 1.07 ± 0.029
10 | TCGGTATGTG | 1.03 ± 0.045
11 | TCGGTCAAAT | 0.977 ± 0.011
12 | TCGGTCACCA | 1.05 ± 0.028
13 | TCGGTCCGTT | 0.9492 ± 0.0027
14 | TCGGTCCTTT | 0.99 ± 0.029
15 | TCGGTCTAAC | 1 ± 0.015
16 | TCGGTGACGG | 1.01 ± 0.017
17 | TCGGTGGGGC | 1.01 ± 0.019
18 | TCGGTGGTGG | 0.997 ± 0.019
19 | TCGGTGTCGC | 0.9621 ± 0.0031
20 | TCGGTTAGTA | 0.9883 ± 0.0021
21 | TCGGTTCAGC | 1.011 ± 0.0024
22 | TCGGTTCCCG | 0.981 ± 0.018
23 | TCGGTTTGTT | 1 ± 0.0029
24 | TCGTAAAATT | 0.986 ± 0.026
25 | TCGTAACACT | 1.16 ± 0.0057

Row | Sequence | switch fluorescence ratio
26 | TCGTAAGTAA | 1.04 ± 0.0094
27 | TCGTAATAGT | 1.62 ± 0.068
28 | TCGTAATGGT | 1.05 ± 0.083
29 | TCGTACGTGG | 0.998 ± 0.016
30 | TCGTAGAATA | 1.01 ± 0.032
31 | TCGTAGGGGT | 0.995 ± 0.018
32 | TCGTATTTTC | 0.994 ± 0.058
33 | TCGTCGATTC | 1.12 ± 0.02
34 | TCGTCGCTTT | 1.04 ± 0.026
35 | TCGTCGTGGG | 1.02 ± 0.025
36 | TCGTCTGCGG | 1.04 ± 0.03
37 | TCGTGAGGTT | 1.01 ± 0.012
38 | TCGTGAGTAG | 0.973 ± 0.017
39 | TCGTGAGTTT | 0.996 ± 0.035
40 | TCGTGGCGGA | 0.979 ± 0.011
41 | TCGTGGTGGT | 0.974 ± 0.018
42 | TCGTGTACTG | 1.041 ± 0.006
43 | TCGTGTGGGG | 1.02 ± 0.048
44 | TCGTGTTACT | 1.005 ± 0.008
45 | TCGTTACCTT | 1.135 ± 0.0013
46 | TCGTTAGGGG | 0.999 ± 0.019
47 | TCGTTATCTT | 0.979 ± 0.013
48 | TCGTTATGTA | 0.992 ± 0.018
49 | TCGTTATTAA | 1 ± 0.012
50 | TCGTTATTGT | 1.01 ± 0.021

Row | Sequence | switch fluorescence ratio
51 | TCGTTATTTG | 1.004 ± 0.0078
52 | TCGTTCAGCG | 0.997 ± 0.019
53 | TCGTTCGTAT | 0.9875 ± 0.004
54 | TCGTTGATGC | 1.08 ± 0.08
55 | TCGTTGATTT | 1.016 ± 0.01
56 | TCGTTGCAGT | 1.02 ± 0.018
57 | TCGTTGCATG | 1.01 ± 0.065
58 | TCGTTGGACT | 1.01 ± 0.0029
59 | TCGTTGGTGG | 0.984 ± 0.06
60 | TCGTTGTTTT | 1.0216 ± 0.00093
61 | TCGTTTAACA | 0.9602 ± 0.0092
62 | TCGTTTATAT | 1.01 ± 0.04
63 | TCGTTTGGTA | 0.958 ± 0.027
64 | TCGTTTGGTC | 0.986 ± 0.01
65 | TCGTTTGGTT | 1.04 ± 0.026
66 | TCGTTTTGCC | 0.956 ± 0.02
67 | TCGTTTTGCT | 0.981 ± 0.017
68 | TCTAAAGGGA | 1.03 ± 0.024
69 | TCTAAAGGGT | 0.9988 ± 0.0021
70 | TCTAAATAGG | 0.9908 ± 0.0032
71 | TCTAAGCCAT | 1.05 ± 0.017
72 | TCTAAGGATT | 1.02 ± 0.022
73 | TCTAAGGGGG | 1.015 ± 0.0074
74 | TCTAAGTCCA | 0.989 ± 0.068
75 | TCTACGCACT | 2.62 ± 0.15

Row | Sequence | switch fluorescence ratio
76 | TCTACTGGGC | 1.05 ± 0.1
77 | TCTAGAACGC | 1.01 ± 0.013
78 | TCTAGACTCA | 1.18 ± 0.29
79 | TCTAGCCGGT | 0.9878 ± 0.0085
80 | TCTAGGACGT | 1.02 ± 0.019
81 | TCTAGTGGCA | 0.98 ± 0.038
82 | TCTAGTGTGC | 0.9772 ± 0.0086
83 | TCTATCAGGG | 0.995 ± 0.011
84 | TCTATCATGA | 0.988 ± 0.013
85 | TCTATTAGTA | 0.932 ± 0.062
86 | TCTATTATAC | 1.23 ± 0.13
87 | TCTATTGAGC | 1.032 ± 0.0049
88 | TCTATTGGA | 0.9949 ± 0.0037
89 | TCTCAAATTT | 0.975 ± 0.029
90 | TCTCAATGCT | 1.21 ± 0.2
91 | TCTCACGGGG | 1.29 ± 0.33
92 | TCTCGGCATT | 1.46 ± 0.23
93 | TCTCGGCTAT | 2.98 ± 0.2
94 | TCTCGTGAGA | 0.997 ± 0.053
95 | TCTCTATAGG | 0.9834 ± 0.0036
96 | TCTCTATGTG | 0.966 ± 0.036
97 | TCTCTATTT | 0.965 ± 0.048
98 | TCTCTGTGTT | 1.027 ± 0.0019
99 | TCTCTGTTGA | 1.01 ± 0.057
100 | TCTGAAAGTC | 0.9963 ± 0.0057

Row | Sequence | switch fluorescence ratio
101 | TCTGAAGGAG | 1.01 ± 0.013
102 | TCTGATGGAA | 1.06 ± 0.037
103 | TCTGATTGGT | 0.9945 ± 0.0034
104 | TCTGCATGTT | 1.02 ± 0.012
105 | TCTGGAAGGC | 1.29 ± 0.25
106 | TCTGGAGAGG | 1.01 ± 0.034
107 | TCTGGATTCA | 0.986 ± 0.027
108 | TCTGGATTGG | 0.961 ± 0.029
109 | TCTGGCCGGC | 0.986 ± 0.028
110 | TCTGGCGTAA | 1.79 ± 1.1
111 | TCTGGGAAAG | 1 ± 0.013
112 | TCTGGGGCCG | 1.02 ± 0.065
113 | TCTGGGTCGC | 1.02 ± 0.017
114 | TCTGGGTTGG | 1.013 ± 0.0074
115 | TCTGGTGCAT | 1.17 ± 0.14
116 | TCTGGTTAAA | 0.982 ± 0.013
117 | TCTGGTTAGC | 1.03 ± 0.026
118 | TCTGGTTTGG | 1.03 ± 0.049
119 | TCTGTAGCTG | 1.3 ± 0.015
120 | TCTGTAGTTG | 0.997 ± 0.04
121 | TCTGTCCG | 1.05 ± 0.14
122 | TCTGTCTATA | 1.03 ± 0.026
123 | TCTGTCTGAG | 0.988 ± 0.027
124 | TCTGTGCCTT | 1.06 ± 0.069
125 | TCTGTGTACG | 1.04 ± 0.047

Row | Sequence | switch fluorescence ratio
126 | TCTGTGTTAT | 1 ± 0.026
127 | TCTGTGTTGA | 1 ± 0.011
128 | TCTGTTAGGA | 1 ± 0.035
129 | TCTGTTCTTG | 0.987 ± 0.012
130 | TCTGTTGACG | 1.0236 ± 0.00081
131 | TCTGTTGCAG | 0.999 ± 0.024
132 | TCTGTTTGTA | 0.9816 ± 0.0075
133 | TCTTAAAAT | 1.006 ± 0.0097
134 | TCTTAAGGGA | 0.979 ± 0.025
135 | TCTTAATTTT | 0.973 ± 0.024
136 | TCTTACAATA | 1.14 ± 0.091
137 | TCTTACAATC | 1.1 ± 0.095
138 | TCTTAGAGGG | 0.991 ± 0.017
139 | TCTTAGGAGG | 0.9691 ± 0.0023
140 | TCTTAGGCGC | 1.03 ± 0.029
141 | TCTTAGGCGT | 1.02 ± 0.022
142 | TCTTAGGGGA | 0.998 ± 0.017
143 | TCTTAGTTGT | 0.988 ± 0.024
144 | TCTTATCTTG | 0.978 ± 0.037
145 | TCTTCAAGTT | 0.988 ± 0.031
146 | TCTTCCTGGA | 1.08 ± 0.039
147 | TCTTCGTTTT | 1.23 ± 0.32
148 | TCTTGAACTT | 1 ± 0.018
149 | TCTTGAATGG | 0.986 ± 0.0051
150 | TCTTGATCTA | 1.015 ± 0.0098

Row | Sequence | switch fluorescence ratio
151 | TCTTGATCTG | 1.016 ± 0.0021
152 | TCTTGCATGT | 1.02 ± 0.028
153 | TCTTGCCGCT | 1.01 ± 0.061
154 | TCTTGGATCT | 0.987 ± 0.055
155 | TCTTGGGGAC | 1.14 ± 0.2
156 | TCTTGGGGGT | 1.03 ± 0.049
157 | TCTTGTAACT | 1.01 ± 0.017
158 | TCTTGTACGT | 1.01 ± 0.03
159 | TCTTTAAAGA | 0.9785 ± 0.0083
160 | TCTTTAGGGA | 1.02 ± 0.054
161 | TCTTTCATAT | 0.9392 ± 0.0062
162 | TCTTTGGGAT | 0.962 ± 0.033
163 | TCTTTGTTAC | 1.05 ± 0.022
164 | TCTTTTGAGG | 1.02 ± 0.056
165 | TCTTTTGGGC | 1.02 ± 0.076
166 | TCTTTTTGGA | 1.017 ± 0.0079
167 | TCTTTTTGGT | 0.992 ± 0.018
168 | TGAAAAAACA | 1.02 ± 0.019
169 | TGAAAAAATT | 1.02 ± 0.071
170 | TGAAAAAGTT | 1.32 ± 0.47
171 | TGAAAAATTG | 0.985 ± 0.053
172 | TGAAAAGAAG | 1.029 ± 0.0061
173 | TGAAAAGGTC | 0.982 ± 0.063
174 | TGAAAAGTCG | 0.99334 ± 0.00072
175 | TGAAAATCTT | 1.18 ± 0.25

Row | Sequence | switch fluorescence ratio
176 | TGAAAATTGA | 0.999 ± 0.017
177 | TGAAACTATT | 1.01 ± 0.027
178 | TGAAACTTGA | 1.042 ± 0.0055
179 | TGAAAGGGGG | 0.99 ± 0.014
180 | TGAAATATGG | 1 ± 0.017
181 | TGAAATGCTA | 1.036 ± 0.0073
182 | TGAAATTAGT | 1.01 ± 0.013
183 | TGAAATTGGA | 0.999 ± 0.015
184 | TGAAATTTTG | 1.01 ± 0.015
185 | TGAACATTTG | 1.03 ± 0.025
186 | TGAACCGCTA | 1.81 ± 0.16
187 | TGAACGGGTG | 1.04 ± 0.068
188 | TGAACTTGAC | 1.14 ± 0.052
189 | TGAAGAACGC | 1.07 ± 0.021
190 | TGAAGACAAC | 1.04 ± 0.025
191 | TGAAGATTTT | 0.9704 ± 0.0081
192 | TGAAGCGGCG | 0.942 ± 0.023
193 | TGAAGCTGAT | 1.02 ± 0.059
194 | TGAAGCTGGG | 1.07 ± 0.12
195 | TGAAGGCTTA | 0.994 ± 0.024
196 | TGAAGGGGCA | 0.951 ± 0.041
197 | TGAAGGTCGG | 0.9917 ± 0.0039
198 | TGAATAGGGG | 0.989 ± 0.0095
199 | TGAATCAACA | 1.04 ± 0.037
200 | TGAATGACGT | 0.972 ± 0.04
